The values that follow come from patent US20040086503A1.

Experiment [1] has as its target extracellular domain of IGF-IR (human) (UniProt P08069). Put plainly: SPR (BIAcore 3000), Protocol 1: antibody captured on protein A, IGF-IR ECD injected. On the technique in general: SPR reads the build-up and loss of mass on a sensor chip optically.
Experiment [2] shares this target. Put plainly: SPR (BIAcore 3000), Protocol 2, essentially as Fagerstam et al.

B1: anti-IGF-IR antibody 2.13.2 (antibody, V domains shown)
VH: EVQLLESGGGLVQPGGSLRLSCTASGFTFSSYAMNWVRQAPGKGLEWVSAISGSGGTTFYADSVKGRFTISRDNSRTTLYLQMNSLRAEDTAVYYCAKDLGWSDSYYYYYGMDVWGQGTTVTVSS
VL: DIQMTQFPSSLSASVGDRVTITCRASQGIRNDLGWYQQKPGKAPKRLIYAASRLHRGVPSRFSGSGSGTEFTLTISSLQPEDFATYYCLQHNSYPCSFGQGTKLEIKR
Take B1: the Kd (as a rule, the concentration at which binding is half-saturated) in experiment [1] was 3.5 nM; in experiment [2], 1.53 nM.

B2: anti-IGF-IR antibody 4.17.3 (antibody, human IgG2, V domains shown)
VH: PGLVKPSETLSLTCTVSGGSISSYYWSWIRQPPGKGLEWIGYIYYSGSTNYNPSLKSRVTISVDTSKNQFSLKLSSVTAADTAVYYCARTYSSSFYYYGMDVWGQGTTVTVSS
VL: GDRVTITCRASQSISTFLNWYQQKPGKAPKLLIHVASSLQGGVPSRFSGSGSGTDFTLTISSLQPEDFATYYCQQSYNAPLTFGGGTKVEIK
B2: the dissociation constant (Kd) in experiment [1] stood at 13 nM. That is a double-digit nanomolar value.

B3: anti-IGF-IR antibody 2.12.1 (antibody, V domains shown)
VH: QAQLVESGGGLVKPGGSLRLSCAASGFTFSDYYMSWIRQAPGKGLEWVSYISSSGSTRDYADSVKGRFTISRDNAKNSLYLQMNSLRAEDTAVYYCVRDGVETTFYYYYYGMDVWGQGTTVTVSS
VL: DIQMTQSPSSLSASVGDRVTFTCRASQDIRRDLGWYQQKPGKAPKRLIYAASRLQSGVPSRFSGSGSGTEFTLTISSLQPEDFATYYCLQHNNYPRTFGQGTEVEIIR
As for B3, the dissociation constant Kd in experiment [1] amounted to 7.37 nM.

B4: anti-IGF-IR antibody 2.14.3 (antibody, human IgG2, V domains shown)
VH: GPGLVKPSETLSLTCTVSGGSISNYYWSWIRQPAGKGLEWIGRIYTSGSPNYNPSLKSRVTMSVDTSKNQFSLKLNSVTAADTAVYYCAVTIFGVVIIFDYWGQGTLVTVSS
VL: SSLSASVGDRVTFTCRASQDIRRDLGWYQQKPGKAPKRLIYAASRLQSGVPSRFSGSGSGTEFTLTISSLQPEDFATYYCLQHNNYPRTFGQGTEVEIIR
For the molecule B4, the equilibrium dissociation constant (Kd) in experiment [1] is 0.641 nM.
